Positions of bridges follow the written chain, without caps; N, C: chain ends. Non-standard residues stand in square brackets, D forms with d. Primed or numbered codes have the meaning given here. No end group written: not given here. PEG11′ = PEG11 linker (11-unit polyethylene glycol spacer); PEG5′ = not defined here; PEG11″ = PEG11 linker; βAla = NCCC(=O)O
Tests used:
HGF [1] = target: T1, HGF (Homo sapiens, UniProt P14210); test: Binding of cyclic peptides to immobilized HGF by SPR (Biacore T200); settings: immobilized biotinylated HGF, single cycle kinetics; for kon: read-out: Ka (association rate); for koff: read-out: Kd (dissociation rate)
T1 construct: the full-length human HGF cDNA was cloned into pEHX1.1 plasmid; made in house; host or cells: Chinese hamster ovary (CHO) cells
Description: (§1) Binding of the cyclic peptides to immobilized HGF was measured using surface plasmon resonance (SPR) with Biacore T200 (product of GE Healthcare). Specifically, 2000 resonance units (RU) of biotinylated HGF was immobilized onto a CAP sensor chip by using a biotin capture kit (product of GE Healthcare).
(§2) Binding of the cyclic peptides was tested by injecting varying concentrations of the cyclic peptides into an HBS EP+buffer (10 mM HEPES (pH 7.4), 150 mM NaCl, 3 mM EDTA, and 0.05% (v/v) Surfactant P20) containing 0.1% DMSO at a flow rate of 30 μl/min. Binding of the cyclic peptides to HGF was analyzed by single cycle kinetics analysis.

PC-9 cells = test: Gefitinib resistance test; format: cell-based, human; parameters: growth of lung cancer cells: dose or concentration left out as unconfirmed
Description: The resistance to gefitinib, an anticancer agent, was tested by seeding human lung cancer cells, PC-9 cells, on a 24-well plate and cultured for 24 hours on a RPMI medium containing 10% fetal bovine serum. The number of living cells was counted after non-addition or addition of gefitinib ([…]), HGF (20 ng/mL), or HiP8-PEG11 (1-1000 nM) and culturing for 72 hours.

HGF [2] = target: T1, HGF; test: MET activation test: inhibition of HGF-induced MET activation in EHMES-1 cells; format: cell-based; settings: at a concentration of 100 nM or more
Description: EHMES-1 Cells were stimulated for 10 minutes while using a medium with 20 ng/ml ([…]) of an hHGF protein in the presence or absence of a cyclic peptide and washed with phosphate-buffered physiological saline (PBS). Then, 4% paraformaldehyde (PFA) was added in PBS and the resulting mixture was incubated for 30 minutes, followed by further washing three times with PBS. The cells were […] for 30 minutes with 5% goat serum and 0.02% Triton X-100 in PBS and then, incubated at 4° C. for 12 hours in Phospho-Met (Tyr1234/1235) XP rabbit mAb (D26, product of Cell Signaling Technology, Danvers, Commonwealth of Massachusetts), a monoclonal antibody. As the monoclonal antibody, used was that diluted at 1:1000 in a 1% goat serum PBS suspension. The cells were washed three times with PBS and incubated for 1 hour in a liquid obtained by diluting an HRP-conjugated anti-rabbit antibody and a 1% goat serum PBS suspension at 1:1000. […] By using a chemiluminescence method with ImmunoStar (registered trademark) LD reagent (product of Wako Pure Chemicals, Japan), chemiluminescence intensity was measured by ARVO MX (product of Perkin Elmer). Relative MET phosphorylation was calculated as the following: (chemiluminescence unit of sample—chemiluminescence unit of mock control)/(chemiluminescence unit of […]—chemiluminescence unit of mock control). […]
Target sequence in this assay (P14210 32-489 isoform P14210-3): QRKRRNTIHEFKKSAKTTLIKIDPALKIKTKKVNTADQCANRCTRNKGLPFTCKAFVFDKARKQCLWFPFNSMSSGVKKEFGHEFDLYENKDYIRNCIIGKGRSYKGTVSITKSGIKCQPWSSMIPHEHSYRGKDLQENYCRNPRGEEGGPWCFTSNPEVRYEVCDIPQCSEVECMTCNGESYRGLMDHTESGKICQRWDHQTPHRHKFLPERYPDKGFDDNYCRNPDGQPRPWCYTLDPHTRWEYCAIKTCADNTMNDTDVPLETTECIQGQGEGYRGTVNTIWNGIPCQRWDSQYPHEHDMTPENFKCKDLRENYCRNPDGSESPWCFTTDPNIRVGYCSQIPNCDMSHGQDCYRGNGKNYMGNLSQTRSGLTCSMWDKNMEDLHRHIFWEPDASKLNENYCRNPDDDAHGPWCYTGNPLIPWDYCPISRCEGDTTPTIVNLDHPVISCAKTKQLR
Target sequence in this assay (P14210 495-728): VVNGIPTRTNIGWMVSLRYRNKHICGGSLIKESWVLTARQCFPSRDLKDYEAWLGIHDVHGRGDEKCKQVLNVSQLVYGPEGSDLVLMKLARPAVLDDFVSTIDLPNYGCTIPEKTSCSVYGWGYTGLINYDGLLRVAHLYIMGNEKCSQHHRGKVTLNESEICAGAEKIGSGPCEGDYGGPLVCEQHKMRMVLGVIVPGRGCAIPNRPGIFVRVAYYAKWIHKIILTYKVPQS

MET = target: T2, MET (Homo sapiens, UniProt P08581); test: MET activation assay using cells: MET activation by HGF in EHMES-1 cells; format: cell-based
T2 construct: endogenous in cells; host or cells: EHMES-1 cells
Description: In EHMES-1 cells, HGF activated MET at EC50=0.07 nM. The arrow in the graph indicates 0.22 nM HGF used for peptide assessment. […] The EC50 value was determined by using dose-response (variable gradient, 4 parameters) curve fitting of Prism 6.0d and plotting the logarithm of MET activation against an HGF concentration. Data thus obtained are expressed as mean±s.d. of three independent measurement results.
EHMES-1 Cells were stimulated for 10 minutes while using a medium with 20 ng/ml ([…]) of an hHGF protein in the presence or absence of a cyclic peptide and washed with phosphate-buffered physiological saline (PBS). Then, 4% paraformaldehyde (PFA) was added in PBS and the resulting mixture was incubated for 30 minutes, followed by further washing three times with PBS. […] By using a chemiluminescence method with ImmunoStar (registered trademark) LD reagent (product of Wako Pure Chemicals, Japan), chemiluminescence intensity was measured by ARVO MX (product of Perkin Elmer). Relative MET phosphorylation was calculated as the following: (chemiluminescence unit of sample—chemiluminescence unit of mock control)/(chemiluminescence unit of […]—chemiluminescence unit of mock control).

[3] = target: human hepatocyte growth factor (HGF), recombinant full-length, active two-chain form (human, UniProt P14210 32-728); test: cell-based or functional assay
[4] = target: T3, biotinylated full-length human HGF (human, UniProt P14210 32-728, biotinylated with a succinimidyl biotin labeling kit (sites not given)); test: SPR, Biacore T200, biotinylated HGF on CAP chip, peptide injected, single cycle kinetics
T3 construct: also called biotinylated HGF; biotinylated hHGF
Description: as §1, §2

fluorescein-HGF [5] = target: T4, fluorescein-HGF (human, UniProt P14210 32-728, labelled with a succinimidyl fluorescein labeling kit (sites not given)); test: competition, flow cytometry: peptide varied against the binding of 0.44 nM fluorescein-HGF to MET-Fc beads [lower panel]
T4 construct: also called fluoresceinated HGF
Description: (§3) Labeling of hHGF with fluorescein was performed using a succinimidyl fluorescein labeling kit (product of Dojindo). On 200 μl (50% v/v) of protein G beads (Spherotech) in Tris-buffered physiological saline (pH 7.5) containing 0.1% BSA and […] of Tween-20, 5 μg of MET-extracellular domain-Fc fusion protein (product of R&D systems) was immobilized. […] The fluorescence intensity of the beads was detected using a flow cytometer (product of FACS Canto II, BD Biosciences).
(§4) For a competitive test of the cyclic peptide, for each of increased concentrations of the cyclic peptide, 0.44 nM fluorescein-HGF and MET-Fc immobilized beads were mixed, the resulting mixture was incubated at 25° C. for 1 hour, and fluorescence intensity of the beads was measured using a flow cytometer.

fluorescein-HGF [6] = target: T4, fluorescein-HGF; test: competition, flow cytometry: HiP-8 varied against the binding of 0.44 nM fluorescein-HGF to MET-Fc beads
Description: as §3, §4

tcHGF(Xa) = target: T5, tcHGF(Xa) (human, UniProt P14210 32-490; P14210 495-728); test: SPR, Biacore 3000, HiP8-PEG11-biotin on streptavidin chip, tcHGF(Xa) injected, steady-state affinity
T5 construct: A C-terminal hexahistidine tag was added and the sample was treated with TEV protease; also called mature HGF (Xa)
Description: A very limited portion of the scHGF(Xa) bound to HiP-8-PEG11. A binding rate was detected by surface plasmon resonance (SPR). RU represents a resonance unit (resonance unit). The upward arrow and the downward arrow mean start and end of HGF input, respectively. Data are expressed as mean±s.d. of typical sensorgrams performed in two iterations by using HGFs having a plurality of concentrations.
Binding of HGF and HGF fragments to immobilized HiP8-PEG11 was measured by surface plasmon resonance (SPR) with Biacore 3000 (product of Ge Flealthcare). Hip8-PEG11-biotin was supported on the surface of a streptavidin-coated chip at 10 RU (resonance unit). The test was performed by injecting HGF and HGF fragments with varying concentrations into 10 mM TBS (pH 7.4), 150 mM NaCl, and 0.05% Tween 20 (v/v) at a flow rate of 30 μl/min. Binding affinity was analyzed from a fitting model of steady-state affinity by multi-cycle kinetics analysis.

fluorescein-HGF [7] = target: T4, fluorescein-HGF; test: competition, flow cytometry: peptide varied against the binding of 0.44 nM fluorescein-HGF to MET-Fc beads [upper panel]
Description: as §3, §4

T4 sequence (P14210 other isoform, or with tags, fused parts or gaps limits assumed): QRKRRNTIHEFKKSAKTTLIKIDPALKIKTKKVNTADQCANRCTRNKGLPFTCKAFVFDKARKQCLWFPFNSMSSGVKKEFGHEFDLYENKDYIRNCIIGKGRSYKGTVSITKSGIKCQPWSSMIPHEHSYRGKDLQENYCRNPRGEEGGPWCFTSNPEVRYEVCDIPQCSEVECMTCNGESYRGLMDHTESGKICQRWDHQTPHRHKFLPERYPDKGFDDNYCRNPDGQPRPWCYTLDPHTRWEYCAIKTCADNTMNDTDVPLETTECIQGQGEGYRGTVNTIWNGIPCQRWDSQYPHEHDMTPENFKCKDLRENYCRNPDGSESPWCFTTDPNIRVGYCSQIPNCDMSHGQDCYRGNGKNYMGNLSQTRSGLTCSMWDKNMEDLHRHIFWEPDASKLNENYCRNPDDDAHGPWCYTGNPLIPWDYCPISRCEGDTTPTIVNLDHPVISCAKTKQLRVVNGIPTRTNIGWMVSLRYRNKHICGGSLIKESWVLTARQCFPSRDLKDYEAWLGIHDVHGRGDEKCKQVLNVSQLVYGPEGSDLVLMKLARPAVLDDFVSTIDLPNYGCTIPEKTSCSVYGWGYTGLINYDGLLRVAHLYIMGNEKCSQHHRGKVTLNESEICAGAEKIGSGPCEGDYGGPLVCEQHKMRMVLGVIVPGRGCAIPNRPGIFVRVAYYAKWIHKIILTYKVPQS
human hepatocyte growth factor (HGF), recombinant full-length, active two-chain form, sequence (P14210 other isoform, or with tags, fused parts or gaps limits assumed): as above
T3 sequence (P14210 other isoform, or with tags, fused parts or gaps limits assumed): as above
T2 sequence (P08581 25-1390): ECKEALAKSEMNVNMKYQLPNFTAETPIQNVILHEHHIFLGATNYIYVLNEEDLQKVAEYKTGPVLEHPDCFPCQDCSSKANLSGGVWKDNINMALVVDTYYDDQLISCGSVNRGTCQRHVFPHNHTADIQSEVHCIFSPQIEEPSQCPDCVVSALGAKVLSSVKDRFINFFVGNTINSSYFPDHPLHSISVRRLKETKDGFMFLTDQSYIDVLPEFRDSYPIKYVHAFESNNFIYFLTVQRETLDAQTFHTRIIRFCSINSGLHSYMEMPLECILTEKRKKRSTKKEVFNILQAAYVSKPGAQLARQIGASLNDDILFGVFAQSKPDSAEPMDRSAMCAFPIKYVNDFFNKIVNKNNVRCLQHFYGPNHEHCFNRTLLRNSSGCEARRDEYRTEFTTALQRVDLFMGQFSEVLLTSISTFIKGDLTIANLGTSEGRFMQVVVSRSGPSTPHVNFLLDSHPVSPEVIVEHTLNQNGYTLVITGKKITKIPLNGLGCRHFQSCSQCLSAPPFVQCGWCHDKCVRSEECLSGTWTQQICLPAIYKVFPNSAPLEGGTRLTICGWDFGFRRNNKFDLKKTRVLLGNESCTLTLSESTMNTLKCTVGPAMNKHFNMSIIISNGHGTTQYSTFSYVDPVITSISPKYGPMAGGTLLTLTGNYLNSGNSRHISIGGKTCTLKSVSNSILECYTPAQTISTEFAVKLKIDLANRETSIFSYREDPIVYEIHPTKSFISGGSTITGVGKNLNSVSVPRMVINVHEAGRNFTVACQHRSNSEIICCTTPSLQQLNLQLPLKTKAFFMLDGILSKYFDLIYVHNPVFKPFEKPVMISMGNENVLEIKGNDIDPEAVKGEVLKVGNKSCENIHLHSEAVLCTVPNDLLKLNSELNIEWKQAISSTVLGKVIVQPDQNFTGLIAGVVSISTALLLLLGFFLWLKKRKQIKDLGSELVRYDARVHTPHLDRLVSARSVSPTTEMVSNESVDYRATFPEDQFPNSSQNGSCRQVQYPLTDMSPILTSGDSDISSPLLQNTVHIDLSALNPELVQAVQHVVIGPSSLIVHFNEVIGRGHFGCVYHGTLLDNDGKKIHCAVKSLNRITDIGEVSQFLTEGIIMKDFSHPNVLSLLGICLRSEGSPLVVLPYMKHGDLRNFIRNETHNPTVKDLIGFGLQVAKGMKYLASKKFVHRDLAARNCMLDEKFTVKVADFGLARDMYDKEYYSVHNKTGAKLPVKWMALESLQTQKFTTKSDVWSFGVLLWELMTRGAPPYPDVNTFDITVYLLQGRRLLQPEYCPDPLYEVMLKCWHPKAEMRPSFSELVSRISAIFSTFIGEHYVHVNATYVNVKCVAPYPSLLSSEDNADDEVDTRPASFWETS
T5 sequence (P14210 other isoform, or with tags, fused parts or gaps limits assumed, chain 1 of 2): as the sequence (P14210 32-489 isoform P14210-3) above, with K455I, Q456E, L457G counted along it
T5 sequence (P14210 495-728 limits assumed, chain 2 of 2): as the sequence (P14210 495-728) above

## CC[C@H](C)[C@@H]1NC(=O)[C@H](CCCNC(=N)N)NC(=O)[C@H](Cc2ccccc2)NC(=O)[C@H](CCCCN)NC(=O)[C@@H](Cc2c[nH]c3ccccc23)NC(=O)CSC[C@@H](C(=O)NCC(N)=O)NC(=O)[C@H](CCCCN)NC(=O)[C@H](Cc2ccc(O)cc2)NC(=O)[C@H](Cc2c[nH]c3ccccc23)NC(=O)[C@H](CCCCN)NC(=O)[C@H](CO)NC1=O [HiP-12, KFRISKWYK]
HGF [1]
  kon: 700000 M⁻¹ s⁻¹
  koff: 0.0079 s⁻¹

## CC[C@H](C)[C@@H]1NC(=O)[C@H](CCCCN)NC(=O)[C@H](Cc2ccccc2)NC(=O)[C@H]([C@@H](C)CC)NC(=O)[C@@H](Cc2c[nH]c3ccccc23)NC(=O)CSC[C@@H](C(=O)NCC(N)=O)NC(=O)[C@H](CCCCN)NC(=O)[C@H](Cc2ccc(O)cc2)NC(=O)[C@H](Cc2c[nH]c3ccccc23)NC(=O)[C@H](CCCCN)NC(=O)[C@H](CO)NC1=O [HiP-13, IFKISKWYK]
HGF [1]
  kon: 1.9e+06 M⁻¹ s⁻¹
  koff: 0.004 s⁻¹

## COc1cc2ncnc(Nc3ccc(F)c(Cl)c3)c2cc1OCCCN1CCOCC1 [gefitinib, reference compound]
PC-9 cells
  growth of lung cancer cells: strongly inhibits growth of lung cancer cells

## KHKISKWKK ({CH2CO}-[dW]KHKISKWKKC; thioether N-11 (inferred)) [HiP-6, thioether cyclic peptide]
HGF [2]
  MET inhibitory activity: had MET inhibitory activity

## TRKISKWYK ({CH2CO}-[dW]TRKISKWYKC; thioether N-11 (inferred)) [HiP-1, thioether cyclic peptide]
HGF [2]
  MET inhibitory activity: had MET inhibitory activity

## biotinylated HGF: hHGF biotinylated using a succinimidyl biotin labeling kit
MET
  MET activation activity compared with non-labeled HGF: activity equivalent to that of non-labeled HGF

## fluorescein HGF: hHGF labeled with fluorescein using a succinimidyl fluorescein labeling kit
MET
  MET activation activity compared with non-labeled HGF: activity equivalent to that of non-labeled HGF

B1: cyclic peptide HiP-14 (peptide)
peptide: {CH2CO}-[dW]QYKVSKVVYKC
modifications: thioether N-12 (inferred)
[3]
  MET inhibitory activity (MET activation inhibition test, EHMES-1 cells): ≥ 100 nM

B2: cyclic peptide HiP-8 (peptide)
peptide: {CH2CO}-[dW]PLSKWWYSKRC
modifications: thioether N-12 (inferred)
notes: a C-terminal tail (X')r or amide after Cys is not known
[4]
  Kd: 0.4 nM
fluorescein-HGF [5]
  IC50 (read off the curve): ~1 nM
fluorescein-HGF [6]
  IC50: 0.9 nM
[3]
  MET activation inhibition concentration (IC50), EHMES-1 cells stimulated with hHGF: 8 nM

B3: cyclic peptide HiP-6 (peptide)
peptide: {CH2CO}-[dW]KHKISKWKKC
modifications: thioether N-11 (inferred)
[3]
  MET inhibitory activity (MET activation inhibition test, EHMES-1 cells): ≥ 100 nM

B4: cyclic peptide HiP-16 (peptide)
peptide: {CH2CO}-[dW]NKKVSKWYKRGC
modifications: thioether N-13 (inferred)
[3]
  MET inhibitory activity (MET activation inhibition test, EHMES-1 cells): ≥ 100 nM

B5: HiP-8-PEG11-biotin (peptide)
peptide: {CH2CO}-[dW]PLSKWWYSKRC-{βAla-PEG11′-K(D-biotin)}
modifications: thioether N-12 (inferred)
notes: also called immobilized HiP-8-PEG11; HiP-8 (in the staining text)
tcHGF(Xa)
  Kd: 2.5 nM

B6: cyclic peptide HiP-12 (peptide)
peptide: {CH2CO}-[dW]KFRISKWYKC
modifications: thioether N-11 (inferred)
notes: C-terminal tail after Cys not known (drawing)
[4]
  Kd: 12 nM
[3]
  MET inhibitory activity (MET activation inhibition test, EHMES-1 cells): ≥ 100 nM

B7: cyclic peptide HiP-9 (peptide)
peptide: Ac-[dW]CKVSKWSKC
modifications: thioether (positions not given here); also: thioether to Cys2 or Cys10, not given here
[3]
  MET inhibitory activity (MET activation inhibition test, EHMES-1 cells): ≥ 100 nM

B8: cyclic peptide HiP-10 (peptide)
peptide: Ac-[dW]RYIKLCKISKWSRC
modifications: thioether (positions not given here); also: thioether ring-closing Cys not given here (Cys7 or Cys15)
[3]
  MET inhibitory activity (MET activation inhibition test, EHMES-1 cells): ≥ 100 nM

B9: HiP-8-PEG11 (peptide)
peptide: {CH2CO}-[dW]PLSKWWYSKRC[βAla][PEG11″]
modifications: thioether N-12 (inferred)
notes: also called HiP-8 modified peptide
fluorescein-HGF [5]
  IC50 (read off the curve): ~1 nM

B10: cyclic peptide HiP-13 (peptide)
peptide: {CH2CO}-[dW]IFKISKWYKC
modifications: thioether N-11 (inferred)
notes: as for B6
[4]
  Kd: 2.1 nM
[3]
  MET inhibitory activity (MET activation inhibition test, EHMES-1 cells): ≥ 100 nM

B11: cyclic peptide HiP-15 (peptide)
peptide: {CH2CO}-[dW]NRGINKYWKC
modifications: thioether N-11 (inferred)
[3]
  MET inhibitory activity (MET activation inhibition test, EHMES-1 cells): ≥ 100 nM

B12: HiP-8-PEG5 (peptide)
peptide: {CH2CO}-[dW]PLSKWWYSKRC[PEG5′]
modifications: thioether N-12; also: further groups not given here
notes: HiP-8 with a PEG5 tail; also called HiP-8 modified peptide
fluorescein-HGF [7]
  IC50 (read off the curve): ~1 nM

B13: cyclic peptide HiP-1 (peptide)
peptide: {CH2CO}-[dW]TRKISKWYKC
modifications: thioether N-11 (inferred)
[3]
  MET inhibitory activity (MET activation inhibition test, EHMES-1 cells): ≥ 100 nM

— US20210395310A1, “Cyclic Peptide” (The University of Tokyo, priority 2018, published 2021)
